Values quoted from earlier work in paper PMC3526805.
pKd: −log10 of the molar value.

Biological target: C3b C3b (Homo sapiens) (UniProt P01024)
Chain of UniProt P01024 (P01024 566-670): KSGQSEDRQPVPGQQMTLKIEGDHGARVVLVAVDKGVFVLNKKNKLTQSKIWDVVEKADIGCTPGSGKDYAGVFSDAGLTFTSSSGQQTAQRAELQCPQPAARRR

pKd: 5.00
Substance: Factor H four regulatory domains (from UniProt P08603)
